Data from patent US11994512B2, “Single-cell genomic methods to generate ex vivo cell systems that recapitulate in vivo biology with improved fidelity” (Massachusetts Institute of Technology, priority 2018, dated 2024).

Test system: intracellular proteome of ENR+CD and ENR organoids
Assay: LC-MS/MS TMT proteomics of ENR+CD versus ENR organoids
Assay type: cell-based, C57BL/6 mice
Conditions: for Average logFC: ENR+CD versus ENR organoids, sample pairs in aggregate (n=4, 2 technical replicates from two biological donors); for M1-1 Log2 Median Normalized / M1-2 Log2 Median Normalized / M2-1 Log2 Median Normalized / M2-2 Log2 Median Normalized: protein abundance ratio ENR+CD versus ENR organoids, LC-MS/MS TMT proteomics; for M1-1 Log2 Median Normalized: sample pair M1-1; for M1-2 Log2 Median Normalized: sample pair M1-2; for M2-1 Log2 Median Normalized: sample pair M2-1; for M2-2 Log2 Median Normalized: sample pair M2-2; for change: up = enriched in ENR+CD, down = enriched in ENR, FDR<0.05 and log fold change cut-off

Molecule	Average logFC	M1-1 Log2 Median Normalized	M1-2 Log2 Median Normalized	M2-1 Log2 Median Normalized	M2-2 Log2 Median Normalized	change
Q8C196 (protein, UniProt Q8C196 1-1500, looked up, full-length) MTRILTACKVVKTLKSGFGFANVTTKRQWDFSRPGIRLLSVKAKTAHIVLEDGTKMKGYSFGHPSSVAGEVVFNTGLGGYPEALTDPAYKGQILTMANPIIGNGGAPDTTARDELGLNKYMESDGIKVAGLLVLNYSNDYNHWLATKSLGQWLQEEKVPAIYGVDTRMLTKIIRDKGTMLGKIEFEGQSVDFVDPNKQNLIAEVSTKDVKVFGKGNPTKVVAVDCGIKNNVIRLLVKRGAEVHLVPWNHDFTQMEYDGLLIAGGPGNPALAQPLIQNVKKILESDRKEPLFGISTGNIITGLAAGAKSYKMSMANRGQNQPVLNITNRQAFITAQNHGYALDNTLPAGWKPLFVNVNDQTNEGIMHESKPFFAVQFHPEVSPGPTDTEYLFDSFFSLIKKGKGTTITSVLPKPALVASRVEVSKVLILGSGGLSIGQAGEFDYSGSQAVKAMKEENVKTVLMNPNIASVQTNEVGLKQADAVYFLPITPQFVTEVIKAERPDGLILGMGGQTALNCGVELFKRGVLKEYGVKVLGTSVESIMATEDRQLFSDKLNEINEKIAPSFAVESMEDALKAADTIGYPVMIRSAYALGGLGSGICPNKETLIDLGTKAFAMTNQILVERSVTGWKEIEYEVVRDADDNCVTVCNMENVDAMGVHTGDSVVVAPAQTLSNAEFQMLRRTSVNVVRHLGIVGECNIQFALHPTSMEYCIIEVNARLSRSSALASKATGYPLAFIAAKIALGIPLPEIKNVVSGKTSACFEPSLDYMVTKIPRWDLDRFHGTSSRIGSSMKSVGEVMAIGRTFEESFQKALRMCHPSVDGFTPRLPMNKEWPANLDLKKELSEPSSTRIYAIAKALENNMSLDEIVRLTSIDKWFLYKMRDILNMDKTLKGLNSDSVTEETLRKAKEIGFSDKQISKCLGLTEAQTRELRLKKNIHPWVKQIDTLAAEYPSVTNYLYVTYNGQEHDIKFDEHGIMVLGCGPYHIGSSVEFDWCAVSSIRTLRQLGKKTVVVNCNPETVSTDFDECDKLYFEELSLERILDIYHQEACNGCIISVGGQIPNNLAVPLYKNGVKIMGTSPLQIDRAEDRSIFSAVLDELKVAQAPWKAVNTLNEALEFANSVGYPCLLRPSYVLSGSAMNVVFSEDEMKRFLEEATRVSQEHPVVLTKFVEGAREVEMDAVGKEGRVISHAISEHVEDAGVHSGDATLMLPTQTISQGAIEKVKDATRKIAKAFAISGPFNVQFLVKGNDVLVIECNLRASRSFPFVSKTLGVDFIDVATKVMIGESIDEKRLPTLEQPIIPSDYVAIKAPMFSWPRLRDADPILRCEMASTGEVACFGEGIHTAFLKAMLSTGFKIPQKGILIGIQQSFRPRFLGVAEQLHNEGFKLFATEATSDWLNANNVPATPVAWPSQEGQNPSLSSIRKLIRDGSIDLVINLPNNNTKFVHDNYVIRRTAVDSGIALLTNFQVTKLFAEAVQKSRTVDSKSLFHYRQYSAGKAA	−1.21	−1.302	−0.76	−1.9525	−0.825	down
Q8BZ20 (protein, UniProt Q8BZ20 1-711, looked up, full-length) MAQAAVAVAEVTQLLCAAGGALELAELRRRLRTSLGTDALERLLRDCGRFVVASRAVVAVGAGREAAAAASERLVLAVSSLRLCRAHQGPKPGCTGLCAQLHLCKFLIYGNCKFLKTGKNCRNGHNLKTDHNLSVLRTHGVDHLTYTELCQLLLQNDPSLLPDICLHYNKGDGPFGSCSFQKQCIKLHICQYFLQGECKFGTSCKRSHEFTNSESLEQLERLGLSSDLVSRLLSTYRNAYDIKNKGSALSKVSPSPAGPQGSSERKDSSGPVSPGTPSQEESEQICLYHIRKSCSFQEKCHRVHFHLPYRWQFLDGGKWKDLDNMELIEEAYSNPSKDRIVYTESAAGFHFDNLDFNSMKFGNTLARRLSTASSVTKPPHFILTTDWIWYWMDEFGSWQEYGRQGSGHPVTTISSSDVERAYLAFCAPGADAQAATLKFQAGKHNYELHFKAFLQKNLVYGTIRKVCRRPKYVSPQDVQMKQSCNTKLHGPKSIPDYWDPAALPDLGFKKITLSSSSEEYQKVWNIFNRTLPFYFVQKIERIQNMGLWEVYQWQKCQMQKQNGGKEVDERQLFHGTSANFVDAICQQNFDWRVCGLHGTSYGKGSYFARDAAYSHHYSKSDTHSHMMFLARVLVGDFVRGSTSFVRPPAKEGQSNAFYDSCVNSMSDPTIFVVFEKHQVYPEYLIQYSTSSKPPASPSIFVALGNLFTSRQ	1.138	1.138	0.69	1.1465	1.295	up
Q8C159 (protein, UniProt Q8C159 1-568, looked up, full-length) MTEAEVGAEDLDTLLDELDYLPGHFHLEMQLNFEPRSPAQLRARDLKLQREGLRQELELVATPQLPAVRHLLGTFSFYLEELGDAREHFLEVARKDPGNLNAWANLAHVYGQLGQEEEEEASAGRLASLMGLEGDPEDAGDPRLRAARCLAEQGYAHGFDVGCASPEERAQVLEAGIALYDKALGYGQQIPIEEKRSWYFTMATLFIRLDGIFLEMGSEEQKRLPAFNRTLALLGEVLKSSDSRHQALAWCYVGMLLERKDTFSTTPMGVHEYGYSGTEPLDCFGKAIEIAKNQPPILNRLAKIFHFLGKQDMAVGTCNMVLAVLTDPELNWQAYCTRAKVRIRAYVHDLERAKVGLGGLPDRNHLACAKADLEEVVKVCPSLRTYLDISQVYYYMGVDAMRELLAVDEAALNQALVFLAKAGELELGDTLPELQLLRGKCLRVQGEDANAAACFKRAVELDDEGSSHTEGFGCLLEALLAQWSQAQLSDGEVGYEVDVWLRHAQGKYPAARLRQELQRVWRGHTEEVLGLARALVAQGRPALVRLLFETMEHEGEDAGGSGKSRVSS	−1.177	−0.633	−1.446	−1.1765	−1.271	down
Q8BPQ7 (protein, UniProt Q8BPQ7 1-1093, looked up, full-length) MASVPAEAETRQRLLRTVKKEVKQIMEEAVTRKFVHEDSSHIISFCAAVEACVLHGLRRRAAGFLRSNKIAALFMKVGKGFPPAEELSRKVQELEQLIESARNQIQGLQENVRKLPKLPNLSPLAIKHLWIRTALFGRVLDKIVHYLVENSSKYYEKEALLMDPVDGPILASLLVGPCALEYTKMKTADHFWTDPSADELVQRHRIHSSHLRQDSPTKRPALCIQKRHSSGSMDDRPSISARDYVESLHQDSRATLLYGKNNVLVQPRDDMEAVPGYLSLHQTADVMTLKWTPNQLMNGSVGDLDYEKSVYWDYAVTIRLEEIVYLHCHQQVDSGGTVVLVSQDGIQRPPFRFPKGGHLLQFLSCLENGLLPHGQLDPPLWSQRGKGKVFPKLRKRSPQGSSESTSSDKEDDEATDYVFRIIYPGTQSEFVPQDLMDVSMNNLPPLWQPSPRKSSCSSCSQSGSADGGSTNGCNHERAPLKLLCDNMKYQILSRAFYGWLAYCRHLSTVRTHLSALVNHMIVSPDLPCDAGQGLTASIWEKYIQDSTTYPEQELLRLIYYGGVQPEIRRAVWPFLLGHYQFGMTEMERKEVDEQIHACYAQTMSEWLGCEAIVRQRERESHAAALAKCSSGASLDSHLHRMLHRDSTISNESSQSCSSGRQNLRLQSDSSSSTQVFESVDEVEQTEAEGRSEEKHPKIPNGNPANGTCSPDSGHPSSHNFSSGLSEHSEPSLSTEDSVLDAQRSLPAVFRPGDSSVEDGQSSEATTSRDEAPREELAVQDSLESDLLANESLEEFMSIPGSLDVALPEKDGAVMDGWPGEADKPSRADSEDNLSEEPEMESLFPALASLAVTSSANNEASPVSSSGVTYSPELLDLYTVNLHRIEKDVQRCDRSYWYFTAANLEKLRNIMCSYIWQHIEIGYVQGMCDLLAPLLVILDDEALAFSCFTELMKRMNQNFPHGGAMDTHFANMRSLIQILDSELFELMHQNGDYTHFYFCYRWFLLDFKRELVYDDVFSVWETIWAAKHVSSAHYVLFIALALVEVYRDIILENNMDFTDIIKFFNEMAERHNAKQILQLARDLVHKVQILIENK	1.34	1.5	0.707	1.4015	1.339	up
Q8BW75 (protein, UniProt Q8BW75 1-520, looked up, full-length) MSNKSDVIVVGGGISGMAAAKLLHDCGLSVVVLEARDRVGGRTYTIRNKNVKYVDLGGSYVGPTQNRILRLAKELGLETYKVNEVERLIHFVKGKSYAFRGPFPPVWNPITYLDNNNLWRTMDEMGQEIPSDAPWKAPLAEEWDYMTMKELLDKICWTKSTKQIATLFVNLCVTAETHEVSALWFLWYVKQCGGTTRIISTTNGGQERKFIGGSGQVSERIKDILGDRVKLERPVIHIDQTGENVIVKTLNHEIYEAKYVISAIPPALGMKIHYSPPLPMLRNQLISRVPLGSVIKCMVYYKEPFWRKKDFCGTMVIEGEEAPIAYTLDDTKPDGTYAAIMGFILAHKARKLVRLTKEERLRKLCELYAKVLNSQEALQPVHYEEKNWCEEQYSGGCYTTYFPPGILTQYGRVLRQPVGKIFFAGTETASHWSGYMEGAVEAGERAAREILHAIGKIPEDEIWQPEPESLDVPARPITSTFLERHLPSVPGLLKLFGLTTILSATALGFLAHKRGLFVHF	−1.176	−0.94	−1.056	−1.8625	−1.177	down
Q8C2E4 (protein, UniProt Q8C2E4 1-695, looked up, full-length) MDLLRLSRLFSGPRPIGLSVLQHLDLVGSTRWTGGREGPARLRAAFCGSSSPLPLGSGNQKEMSSLCSDSSKLSTVAPQEEAEEESFGSLSGKFSSRRIFHKSTAQLYNLQLKEQGGEEEELEPRPWRGRRNTQYWYFFQCKRLIKEGKLAEALDLFERQMLKEERLQPLECNYTVLIGGCGRVGYLKKAFRLFNDMKKRDLEPSDATYTALFNVCAESPWKDSALQSALKLRQQLQARNFQLNLKTYHALLKVAAKCADLRLCLDVFKEIIQRGHAVTEETFCFLLVGCIQDKKTGFRQAMQVWRQMLSLGIKPSRHGYNLLLEAARDCGLGDPEVASRLLLTSQEETILLPPPKGRHMAGRKVQAKTVHGVSLRHVEALERQLFLEPSQKLEGPPALPEARVTSRTQPEVETTAEPGHTVALTPLASKPTHLELEVSLLSLGTLSPAVVSFGTVATPADRLALMGGLEGFLGKMTEHGLQPDIKTLTLLAEVVEPGSTAESSLLSVLDRHRVEADVTFFNTLIRKKSKLGDLEGAKALLPILAKKGIVPNLRTFCNLAIGCHRPRDGMQLLADMKKSQVSPNIHIYSTLINAALKKLDYTYLISILKDMRQNSVPVNEVVVRQLEFAAEYPPTFDRYKGKNTYLEKIDGFRAYYKQWLKAMPAEEAPHPWQEFQNKPVGDQDTTDKAGGLRDG	−1.79	−1.411	−1.637	−1.8825	−2.231	down
